From patent US10774132B2, “Ultralong complementarity determining regions and uses thereof” (THE SCRIPPS RESEARCH INSTITUTE, priority 2012, dated 2020)

Columns and labels:
[1] = tested on: Mouse NFS-60 cells; assay: Proliferation assay on mouse NFS-60 cells (AlamarBlue); assay type: cell-based; conditions: for F.I. (fluorescence at 595 nm, AlamarBlue, cell viability): 72 hours
Description: Mouse NFS-60 cells were obtained from American Type Culture Collection (ATCC), VA, and cultured in RPMI-1640 medium supplemented with 10% fetal bovine serum (FBS), 0.05 mM 2-mercapoethanol and 62 ng/ml human macrophage colony stimulating factor (M-CSF). For proliferation assay, mouse NFS-60 cells were washed three times with RPMI-1640 medium and resuspended in RPMI-1640 medium with 10% FBS and 0.05 mM 2-mercapoethanol at a density of 1.5×10^5 cells/ml. In 96-well plates, 100 μl of cell suspension was added into each well, followed by the addition of varied concentrations of bGCSF, BLV1H12 antibody, and the immunoglobulin constructs described herein, Equal volume of PBS buffer was added into the control wells. The plates were incubated at 37° C. in a 5% CO2 incubator for 72 hours. Cells were then treated with AlamarBlue (Invitrogen) ( 1/10 volume of cell suspension) for 4 hours at 37° C. Fluorescence at 595 nm for each well was read to indicate the cell viability.

[2] = tested on: Human mPB CD34+ cells; assay: Proliferative activity on human granulocyte progenitors (flow cytometry); assay type: cell-based; conditions: for Number of CD45RA-CD41-: 7 days, flow cytometry
Description: Human mPB CD34^+ cells were purchased from AllCells. Cells were resuspended in HSC expansion medium (StemSpan SFEM, StemCell Technologies) supplemented with 1× antibiotics and the following recombinant human cytokines: thrombopoietin, IL6, Flt3 ligand, and stem cell factor (100 ng/mL, R & D Systems), then plated in 96-well plates (1000 cells per well), with varied concentrations of BLV1H12-bGCSF fusion antibodies. Cells were cultured for 7 days at 37° C. in a 5% CO2 incubator, then analyzed by flow cytometry to measure cell number and expression of CD45ra and CD41. Cells were stained in staining medium (HBSS supplemented with 2% FBS and 2 mM EDTA) at 4° C. for 1 h with PECy7 anti-CD45ra and eFluor 450 anti-CD41 (eBiosciences), then washed with staining medium and analyzed. Multicolor analysis for cell phenotyping was performed on a LSR II flow cytometer (Becton Dickinson). FIGS. 10A-10E and Tables 9-10 show the human granulocyte progenitor cell proliferative activities of the Ab-GCSF fusion antibodies.

[3] = Pharmacokinetics in mice (ELISA of blood samples); assay type: in vivo; conditions: 70 μg injected, BALB/c mice
Description: For PK study in mice, 70 μg of the immunoglobulin constructs described herein were injected into 3 BALB/c mice per group. Blood samples were drawn from time 0 to 14 days with extended intervals and analyzed by ELISA using anti-human IgG Fc antibody with horseradish peroxidase (HRP) labeled (KPL) and anti-6×His antibody (“6×His” disclosed as SEQ ID NO: 511) with HRP labeled (Clontech). Data were normalized by taking maximal concentration at the first time point (30 min).

[4] = tested on: mice neutrophils; assay: Neutrophil counts in mice, 10th day after injection; assay type: in vivo; conditions: blood stained and counted at the 10th day post-injection
Description: On the 10th day after injection of BLV1H12-bGCSF fusion antibodies into mice for PK study, blood samples were drawn from the mice and stained using the Diff Quick Staining Kit (Thermo Fisher Scientific, IL). Neutrophils and white blood cells were counted under microscope and the percentages of neutrophils were analyzed. FIGS. 12A-12B and Table 12 show proliferative activities of BLV1H12-bGCSF fusion antibodies on mice neutrophils that are blood stained and counted at the 10th day post-injection.

[5] = target: T1, GLP-1 receptor (GLP-1R) (Homo sapiens, UniProt P43220); assay: GLP-1R activation, cAMP responsive luciferase reporter in HEK293 cells; assay type: cell-based; conditions: HEK293 cells expressing GLP-1R, 24 h
T1 construct: expressed in transfected cells; host or cells: HEK293 (with cAMP responsive luciferase reporter gene)
T1 sequence (P43220 24-463, species assumed): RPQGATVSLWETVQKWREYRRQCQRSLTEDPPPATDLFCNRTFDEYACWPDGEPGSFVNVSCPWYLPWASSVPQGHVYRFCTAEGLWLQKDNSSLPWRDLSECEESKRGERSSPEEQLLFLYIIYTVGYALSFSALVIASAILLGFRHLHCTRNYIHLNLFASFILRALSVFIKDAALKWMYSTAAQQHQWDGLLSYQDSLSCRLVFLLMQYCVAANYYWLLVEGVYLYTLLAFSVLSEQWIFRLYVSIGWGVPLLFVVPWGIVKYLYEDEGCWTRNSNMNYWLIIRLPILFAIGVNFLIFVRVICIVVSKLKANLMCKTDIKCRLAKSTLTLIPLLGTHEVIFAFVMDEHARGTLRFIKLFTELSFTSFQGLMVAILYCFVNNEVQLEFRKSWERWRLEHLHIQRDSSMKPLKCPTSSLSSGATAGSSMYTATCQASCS
Description: HEK293 cells expressing surface GLP-1R and cAMP responsive luciferase reporter gene were seeded in 384 well plates at a density of 5000 cells per well. […] Subsequently, luciferase assay was performed using One-Glo luciferase reagent according manufacture's instruction (Promega).
HEK293 cells expressing surface GLP-1R and cAMP responsive luciferase reporter gene were seeded in 384 well plates at a density of 5000 cells per well. After 24 h incubation at 37° C. with 5% CO2, cells were treated with various concentrations of peptides and BLV1H12-GLP-1 clip fusion proteins and incubated for another 24 h. Subsequently, luciferase assay was performed using One-Glo luciferase reagent according manufacture's instruction (Promega).

[6] = tested on: Parental U2OS; assay: Flow cytometry binding to parental U2OS cells; conditions: cell culture supernatant
Description: Briefly, a cell line expressing functionally validated CXCR1 derived from U2OS cells was obtained from DiscoveRx and cultured per manufacturer's instructions (Cat #93-0226C3, DiscoveRx Corporation, Freemont, Calif.). The parental cell line U2OS was obtained from ATCC and cultured under the same conditions as the CXCR1 cells. Cell culture supernatants from Example 2 above were then tested for binding to cells by flow cytometry. The adherent U2OS or CXCR1-U2OS cells were dissociated with Accutase (Innovative Cell Technologies, Inc., San Diego, Calif.), neutralized with an equal volume of media containing 10% serum, centrifuged at 1000 g, and resuspended in PBS with 2% BSA. Next, cells were dispensed into microtiter plates to achieve between 30,000 to 300,000 cells per well, centrifuged again, and resuspended in cell culture supernatant containing expressed IgG, or a dilution of IgG-containing cell culture supernatant. A fluorescent-conjugated anti-Human Fc antibody was used to detect binding of the expressed BLV1H12-IL8 fusion proteins to cells.

B1: Ab: bovine BLV1H12 antibody with ultralong CDR3, no insertion; scaffold of the fusions and control (antibody)
heavy: QVQLRESGPSLVKPSQTLSLTCTASGFSLSDKAVGWVRQAPGKALEWLGSIDTGGNTGYNPGLKSRLSITKDNSKSQVSLSVSSVTTEDSATYYCTSVHQETKKYQSCPDGYRERSDCSNRPACGTSDCCRVSVFGNCLTTLPVSYSYTYNYEWHVDVWGQGLLVTVSS
light: QAVLNQPSSVSGSLGQRVSITCSGSSSNVGNGYVSWYQLIPGSAPRTLIYGDTSRASGVPDRFSGSRSGNTATLTISSLQAEDEADYFCASAEDSSSNAVFGSGTTLTVLGQPKSPPSVTLFPPSTEELNGNKATLVCLISDFYPGSVTVVWKADGSTITRNVETTRASKQSNSKYAASSYLSLTSSDWKSKGSYSCEVTHEGSTVTKTVKPSECS
[1]
  proliferative activity on mouse NFS-60 cells: lack of proliferative activity
[1]; 0.45725 ng/mL
  F.I. (fluorescence at 595 nm, AlamarBlue, cell viability): 1040
[1]; 1.37174 ng/mL
  F.I. (fluorescence at 595 nm, AlamarBlue, cell viability): 1010
[1]; 4.11523 ng/mL
  F.I. (fluorescence at 595 nm, AlamarBlue, cell viability): 983.3
[1]; 12.34568 ng/mL
  F.I. (fluorescence at 595 nm, AlamarBlue, cell viability): 971.8
[1]; 37.03704 ng/mL
  F.I. (fluorescence at 595 nm, AlamarBlue, cell viability): 960.5
[1]; 111.11111 ng/mL
  F.I. (fluorescence at 595 nm, AlamarBlue, cell viability): 991.83
[1]; 333.33333 ng/mL
  F.I. (fluorescence at 595 nm, AlamarBlue, cell viability): 964.798
[2]
  proliferative activity on human granulocyte progenitor cells: lack of proliferative activity
[2]; 0.28959 ng/mL
  Number of CD45RA-CD41-: 3666
[2]; 0.86877 ng/mL
  Number of CD45RA-CD41-: 3839
[2]; 2.60631 ng/mL
  Number of CD45RA-CD41-: 3852
[2]; 23.45679 ng/mL
  Number of CD45RA-CD41-: 3519
[2]; 70.37037 ng/mL
  Number of CD45RA-CD41-: 3541
[2]; 211.11111 ng/mL
  Number of CD45RA-CD41-: 3606
[2]; 5700 ng/mL
  Number of CD45RA-CD41-: 4100
[3]; day 0.021
  Percentage (blood level normalized to first time point, 30 min): 100.00%
[3]; day 0.042
  Percentage (blood level normalized to first time point, 30 min): 106.09%
[3]; day 0.083
  Percentage (blood level normalized to first time point, 30 min): 95.88%
[3]; day 0.125
  Percentage (blood level normalized to first time point, 30 min): 86.54%
[3]; day 0.250
  Percentage (blood level normalized to first time point, 30 min): 74.26%
[3]; day 1.000
  Percentage (blood level normalized to first time point, 30 min): 52.43%
[3]; day 2.000
  Percentage (blood level normalized to first time point, 30 min): 39.46%
[3]; day 3.000
  Percentage (blood level normalized to first time point, 30 min): 36.97%
[3]; day 8.000
  Percentage (blood level normalized to first time point, 30 min): 45.44%
[3]; day 10.000
  Percentage (blood level normalized to first time point, 30 min): 40.98%
[3]; day 14.000
  Percentage (blood level normalized to first time point, 30 min): 51.96%
[4]
  Percentage of Neutrophil: 18.81
[5]; 1.26953 nM
  RLU (cAMP responsive luciferase reporter): 5200 RLU
[5]; 2.53906 nM
  RLU (cAMP responsive luciferase reporter): 5000 RLU
[5]; 5.07813 nM
  RLU (cAMP responsive luciferase reporter): 5600 RLU
[5]; 10.15625 nM
  RLU (cAMP responsive luciferase reporter): 5500 RLU
[5]; 20.3125 nM
  RLU (cAMP responsive luciferase reporter): 5380 RLU
[5]; 40.625 nM
  RLU (cAMP responsive luciferase reporter): 4600 RLU
[5]; 81.25 nM
  RLU (cAMP responsive luciferase reporter): 6140 RLU
[5]; 162.5 nM
  RLU (cAMP responsive luciferase reporter): 5760 RLU
[5]; 325 nM
  RLU (cAMP responsive luciferase reporter): 5600 RLU
[5]; 650 nM
  RLU (cAMP responsive luciferase reporter): 5800 RLU
[5]; 1300 nM
  RLU (cAMP responsive luciferase reporter): 14000 RLU
[6]
  Median Arbitrary Fluorescence Units (IgG binding): 4 AFU
